Data: publication PMC9352680, “A comprehensive thermodynamic model for RNA binding by the Saccharomyces cerevisiae Pumilio protein PUF4”

T1: PUF4 RNA-binding domain (Saccharomyces cerevisiae, UniProt P25339 537-888)
T1 sequence: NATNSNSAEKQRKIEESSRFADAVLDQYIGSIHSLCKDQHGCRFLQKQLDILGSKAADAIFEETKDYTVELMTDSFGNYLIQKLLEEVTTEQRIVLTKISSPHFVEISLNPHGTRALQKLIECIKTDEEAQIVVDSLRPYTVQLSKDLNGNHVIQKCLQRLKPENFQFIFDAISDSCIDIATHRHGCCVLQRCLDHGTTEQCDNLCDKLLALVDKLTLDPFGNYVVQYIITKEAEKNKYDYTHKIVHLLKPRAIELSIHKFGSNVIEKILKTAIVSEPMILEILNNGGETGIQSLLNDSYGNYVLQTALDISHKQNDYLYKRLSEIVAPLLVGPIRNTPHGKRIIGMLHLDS


biological target: T1, PUF4 RNA-binding domain; assay: Mg; RNA-MaP; 20 mM Na-HEPES pH 7.4, 30 mM KOAc, 0.75 mM MgCl2, 0.1% Tween-20, 5% glycerol, 0.1 mg/mL BSA, 2 mM DTT; 25 C; 0.0125-409.6 nM protein; conditions: tags: N-His6-TEV cleaved; C-SNAP kept, Cy3B-labelled; label: tethered on chip by stalled RNA polymerase

| Binder | Kd [nM] |
| --- | --- |
| ACAAACAGUACAUAACAAAC (ssRNA) [Ib_S3_P3E.1_K3.1_C3.1_H3.1_[T1A]_A3.1_[T5C]_F3.1_T3.1] | > 2300 |
| ACAAACUCUAGAUAACAAAC (ssRNA) [Ib_S3_P3E.1_K3.1_C3.1_H3.1_[G2C]_A3.1_[T5G]_F3.1_T3.1] | > 2300 |
| ACAAACCCUAUAUAACAAAC (ssRNA) [Ib_S3_P3E.1_K3.1_C3.1_H3.1_[T1C]_[G2C]_A3.1_F3.1_T3.1] | > 2300 |
| ACAAACUGCAUAUUACAAAC (ssRNA) [Ib_S3_P3E.1_K3.1_C3.1_H3.1_[T3C]_A3.1_F3.1_[A8T]_T3.1] | 98.9 |
| ACAAACCGUAUAUUACAAAC (ssRNA) [Ib_S3_P3E.1_K3.1_C3.1_H3.1_[T1C]_A3.1_F3.1_[A8T]_T3.1] | 78.5 |
| ACAAACUAUAUUUAACAAAC (ssRNA) [Ib_S3_P3E.1_K3.1_C3.1_H3.1_[G2A]_A3.1_[A6T]_F3.1_T3.1] | > 2300 |
| ACAAACAGUAUUUAACAAAC (ssRNA) [Ib_S3_P3E.1_K3.1_C3.1_H3.1_[T1A]_A3.1_[A6T]_F3.1_T3.1] | > 2300 |
| ACAAACGGUAUCUAACAAAC (ssRNA) [Ib_S3_P3E.1_K3.1_C3.1_H3.1_[T1G]_A3.1_[A6C]_F3.1_T3.1] | > 2300 |
| ACAAACUGGAGAUAACAAAC (ssRNA) [Ib_S3_P3E.1_K3.1_C3.1_H3.1_[T3G]_A3.1_[T5G]_F3.1_T3.1] | > 2300 |
| ACAAACCUUAUAUAACAAAC (ssRNA) [Ib_S3_P3E.1_K3.1_C3.1_H3.1_[T1C]_[G2T]_A3.1_F3.1_T3.1] | > 2300 |
| ACAAACUCUACAUAACAAAC (ssRNA) [Ib_S3_P3E.1_K3.1_C3.1_H3.1_[G2C]_A3.1_[T5C]_F3.1_T3.1] | > 2300 |
| ACAAACUGCAUAUGACAAAC (ssRNA) [Ib_S3_P3E.1_K3.1_C3.1_H3.1_[T3C]_A3.1_F3.1_[A8G]_T3.1] | > 2300 |
| ACAAACUGCUUAUAACAAAC (ssRNA) [Ib_S3_P3E.1_K3.1_C3.1_H3.1_[T3C]_[A4T]_A3.1_F3.1_T3.1] | > 2300 |
| ACAAACCGUAAAUAACAAAC (ssRNA) [Ib_S3_P3E.1_K3.1_C3.1_H3.1_[T1C]_A3.1_[T5A]_F3.1_T3.1] | > 2300 |
| ACAAACUUUAUUUAACAAAC (ssRNA) [Ib_S3_P3E.1_K3.1_C3.1_H3.1_[G2T]_A3.1_[A6T]_F3.1_T3.1] | > 2300 |
| ACAAACUGAGUAUAACAAAC (ssRNA) [Ib_S3_P3E.1_K3.1_C3.1_H3.1_[T3A]_[A4G]_A3.1_F3.1_T3.1] | > 2300 |
| ACAAACGGUACAUAACAAAC (ssRNA) [Ib_S3_P3E.1_K3.1_C3.1_H3.1_[T1G]_A3.1_[T5C]_F3.1_T3.1] | > 2300 |
| Ia_S2_P5E.1_K5.1_C5.1_H5.1_[A4G]_A5.1_F5.1_T5.1 (ssRNA) RNA: UUUGAUUAAUAUGAUAUCGUUCUUUCUUGUGUUAUUAUUCUUUCUCGAUAUCAUAUUAAUCUUU | 12.9 |
| Ia_S2_P5E.1_K5.1_C5.1_H5.1_A5.1_[T5G]_F5.1_T5.1 (ssRNA) RNA: UUUGAUUAAUAUGAUAUCGUUCUUUCUUGUAGUAUUAUUCUUUCUCGAUAUCAUAUUAAUCUUU | 6.34 |
| Ia_S2_P5E.1_K5.1_C5.1_H5.1_[A4T]_A5.1_F5.1_T5.1 (ssRNA) RNA: UUUGAUUAAUAUGAUAUCGUUCUUUCUUGUUUUAUUAUUCUUUCUCGAUAUCAUAUUAAUCUUU | 11.5 |
| ACAAACCGUCUAUAACAAAC (ssRNA) [Ib_S3_P3E.1_K3.1_C3.1_H3.1_[T1C]_[A4C]_A3.1_F3.1_T3.1] | > 2300 |
| ACAAACUGCGUAUAACAAAC (ssRNA) [Ib_S3_P3E.1_K3.1_C3.1_H3.1_[T3C]_[A4G]_A3.1_F3.1_T3.1] | > 2300 |
| ACAAACAGUAGAUAACAAAC (ssRNA) [Ib_S3_P3E.1_K3.1_C3.1_H3.1_[T1A]_A3.1_[T5G]_F3.1_T3.1] | > 2300 |
| ACAAACUCUAUAUUACAAAC (ssRNA) [Ib_S3_P3E.1_K3.1_C3.1_H3.1_[G2C]_A3.1_F3.1_[A8T]_T3.1] | > 2300 |
| ACAAACUUUAUAUUACAAAC (ssRNA) [Ib_S3_P3E.1_K3.1_C3.1_H3.1_[G2T]_A3.1_F3.1_[A8T]_T3.1] | 704 |
| ACAAACUUUAGAUAACAAAC (ssRNA) [Ib_S3_P3E.1_K3.1_C3.1_H3.1_[G2T]_A3.1_[T5G]_F3.1_T3.1] | > 2300 |
| ACAAACUGUCUAUUACAAAC (ssRNA) [Ib_S3_P3E.1_K3.1_C3.1_H3.1_[A4C]_A3.1_F3.1_[A8T]_T3.1] | 116 |
